# From the supplement of paper PMC11908140
# B1: library; numbered along this chain (parent)
# chain: MRKPRAAVGSGHRKQAASQEGRQKHAKNNSQAKPSACDGLARQPEEVVLQASVSSYHLFRDVAEVTAFRGSLLSWYDQEKRDLPWRRRAEDEMDLDRRAYAVWVSEVMLQQTQVATVINYYTGWMQKWPTLQDLASASLEEVNQLWAGLGYYSRGRRLQEGARKVVEELGGHMPRTAETLQQLLPGVGRYTAGAIASIAFGQATGVVDGNVARVLCRVRAIGADPSSTLVSQQLWGLAQQLVDPARPGDFNQAAMELGATVCTPQRPLCSQCPVESLCRARQRVEQEQLLASGSLSGSPDVEECAPNTGQCHLCLPPSEPWDQTLGVVNFPRKASRKPPREESSATCVLEQPGALGAQILLVQRPNSGLLAGLWEFPSVTWEPSEQLQRKALLQELQRWAGPLPATHLRHLGEVVHTFSHIKLTYQVYGLALEGQTPVTTVPPGARWLTQEEFHTAAVSTAMKKVFRVYQGQQPGTCMGSKRSQVSSPCSRKKPRMGQQVLDNFFRSHISTDAHSLNSAAQ
# Variants of: B1
# Experiment: 8OG:A repair function score (normalized; synonymous = 0, nonsense = -1) (normalized log-likelihood score); higher = more repair activity (WT-like)
# Conditions: with 8OG:A DNA repair reporter (GFP) in HEK-293 MUTYH KO cells
# Procedure: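 Saturation mutagenesis (NNN codon scan) of the MUTYH cDNA (521-aa nuclear isoform NM_001048174.1 / NP_001041639), stably expressed under doxycycline induction in HEK-293 MUTYH knockout cells. Cells were co-transfected with an 8OG:A-bearing GFP repair reporter plus mCherry and sorted 72 h later into GFP+ and GFP− bins, three replicates per tile. The Rosace log2 enrichment (GFP+ vs GFP−) was converted per tile to a normalized function score with synonymous variants centered at 0 and nonsense variants (codons 1-471) at -1; low-abundance variants were removed.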
row,Variant,8OG:A repair function score
1,T130A,-0.214
2,T130W,-0.522
3,T130M,-0.278
4,T130P,-0.9
5,T130H,-0.115
6,T130D,0.137
7,T130C,-0.578
8,T130E,-0.171
9,T130K,-0.0846
10,T130V,-0.178
11,T130S,0.107
12,T130F,-0.197
13,T130I,-0.27
14,T130Q,-0.123
15,T130N,-0.00511
16,T130Y,-0.392
17,T130L,-0.336
18,T130R,-0.049
19,T130G,-0.0108
20,T122L,-0.0652
21,T122C,-0.0157
22,T122F,-0.0723
23,T122Q,0.0683
24,T122G,-0.143

row,Variant,8OG:A repair function score
1,T122P,0.0277
2,T122R,-0.0157
3,T122W,-0.16
4,T122M,-0.388
5,T122N,0.119
6,T122K,-0.158
7,T122I,0.0511
8,T122E,-0.0848
9,T122H,0.0576
10,T122Y,-0.13
11,T122D,0.0468
12,T122A,-0.000881
13,T122S,-0.0596
14,T122V,-0.0114
15,Q126Y,-0.055
16,Q126E,0.0677
17,Q126F,0.0114
18,Q126T,0.049
19,Q126P,-0.376
20,Q126C,-0.239
21,Q126W,-0.256
22,Q126H,-0.0777
23,Q126N,0.0504
24,Q126M,0.0168

row,Variant,8OG:A repair function score
1,Q126G,-0.0912
2,Q126A,0.00568
3,Q126I,-0.00505
4,Q126S,0.0362
5,Q126R,0.0261
6,Q126D,0.00176
7,Q126L,0.0989
8,Q126K,0.0876
9,Q126V,-0.0961
10,W128I,-0.397
11,W128Q,-0.844
12,W128G,-0.819
13,W128T,-0.721
14,W128P,-1.23
15,W128V,-0.224
16,W128L,-0.0988
17,W128E,-0.929
18,W128D,-1.27
19,W128M,-0.374
20,W128F,-0.156
21,W128N,-0.681
22,W128H,-0.948
23,W128R,-0.696
24,W128A,-0.875

row,Variant,8OG:A repair function score
1,W128C,-0.476
2,W128K,-0.455
3,W128S,-0.935
4,W128Y,-0.0875
5,A135Y,-0.211
6,A135H,-0.353
7,A135M,-0.467
8,A135V,-0.0536
9,A135I,-0.611
10,A135P,-0.477
11,A135S,-0.0157
12,A135F,-0.316
13,A135L,-0.28
14,A135K,-0.317
15,A135C,-0.244
16,A135D,-0.636
17,A135W,-0.338
18,A135E,-0.996
19,A135Q,-0.686
20,A135N,-0.227
21,A135R,-0.0784
22,A135T,-0.165
23,A135G,-0.074
24,S136E,0.0125

row,Variant,8OG:A repair function score
1,S136A,0.0607
2,S136D,0.029
3,S136C,-0.0713
4,I118V,0.00363
5,I118Y,-0.223
6,I118Q,-0.0947
7,I118R,0.0138
8,I118S,-0.0993
9,I118T,-0.0724
10,I118W,-0.13
11,L131P,-0.153
12,L131H,-0.283
13,L131V,-0.0573
14,L131S,-0.315
15,L131M,0.0751
16,L131Y,-0.228
17,L131N,-0.249
18,L131F,0.00215
19,L131E,-0.608
20,L131W,-1.21
21,L131Q,-0.814
22,L131K,-0.394
23,L131I,-0.158
24,L131T,-0.0104

row,Variant,8OG:A repair function score
1,L131R,-0.798
2,L131A,-0.104
3,L131C,-0.139
4,L131D,-1.1
5,L131G,-0.424
6,K127E,-0.0486
7,K127G,-0.408
8,K127Q,-0.208
9,K127V,-0.306
10,K127T,-0.072
11,K127W,-0.529
12,K127I,-0.204
13,K127N,-0.0772
14,K127P,-0.884
15,K127R,0.014
16,K127Y,-0.398
17,K127H,0.135
18,K127L,-0.0156
19,K127D,-1.32
20,K127S,-0.0418
21,K127A,-0.303
22,K127M,-0.286
23,K127C,0.0938
24,K127F,-0.207

row,Variant,8OG:A repair function score
1,D133V,-0.0608
2,D133T,-0.0145
3,D133K,-0.175
4,D133C,-0.201
5,D133I,-0.308
6,D133S,0.0612
7,D133H,-0.0208
8,D133M,0.0651
9,D133P,-0.372
10,D133R,-0.0865
11,D133W,-0.988
12,D133G,0.0336
13,D133F,-0.0791
14,D133A,-0.000201
15,D133Q,-0.164
16,D133L,-0.0567
17,D133N,0.0132
18,D133E,-0.0313
19,D133Y,-0.727
20,P129K,-0.414
21,P129W,-0.109
22,P129D,-0.0868
23,P129R,-0.477
24,P129E,-0.084

row,Variant,8OG:A repair function score
1,P129N,-0.266
2,P129A,-0.267
3,P129S,-0.231
4,P129Y,-0.513
5,P129I,-0.53
6,P129H,-0.193
7,P129M,-0.298
8,P129Q,-0.0447
9,P129F,-0.742
10,P129V,-0.608
11,P129T,-0.491
12,P129C,-0.403
13,P129G,-0.263
14,P129L,-0.577
15,M125S,-0.734
16,M125I,-0.0973
17,M125T,-0.339
18,M125N,-0.838
19,M125A,-0.557
20,M125L,-0.161
21,M125P,-1.2
22,M125H,-0.401
23,M125W,-0.408
24,M125D,-0.755

row,Variant,8OG:A repair function score
1,M125Y,-0.538
2,M125G,-0.932
3,M125C,-0.306
4,M125R,-0.877
5,M125E,-0.577
6,M125Q,-0.33
7,M125K,-0.523
8,M125V,-0.308
9,M125F,-0.273
10,Y120G,-0.347
11,Y120T,0.0371
12,Y120C,-0.227
13,Y120R,-0.0662
14,Y120I,-0.425
15,Y120K,0.0493
16,Y120N,-0.333
17,Y120D,-0.428
18,Y120A,-0.24
19,Y120S,-0.126
20,Y120F,-0.0973
21,Y120E,-0.482
22,Y120W,-0.465
23,Y120P,-0.134
24,Y120M,-0.0214

row,Variant,8OG:A repair function score
1,Y120V,-0.224
2,Y120H,-0.238
3,Y120Q,-0.154
4,Y120L,-0.231
5,Y121P,-1.26
6,Y121I,-0.562
7,Y121E,-1.92
8,Y121F,-0.109
9,Y121A,-0.942
10,Y121T,-1.25
11,Y121C,-1.17
12,Y121L,-0.993
13,Y121W,-0.427
14,Y121K,-1.13
15,Y121H,-0.853
16,Y121Q,-0.765
17,Y121S,-0.866
18,Y121M,-0.933
19,Y121D,-0.798
20,Y121G,-1.09
21,Y121N,-3.31
22,Y121R,-0.993
23,Y121V,-0.91
24,G123A,0.0469

row,Variant,8OG:A repair function score
1,G123M,-0.101
2,G123E,-0.000943
3,G123R,0.0952
4,G123K,0.00116
5,G123H,-0.0466
6,G123T,0.0116
7,G123P,0.0736
8,G123Q,0.213
9,G123S,0.0793
10,G123C,0.124
11,G123Y,-0.191
12,G123V,0.0959
13,G123L,0.0662
14,G123I,0.0985
15,G123D,-0.257
16,G123W,-0.322
17,G123F,-0.0297
18,G123N,-0.0109
19,L134W,-0.665
20,L134Q,-1.24
21,L134P,-1.26
22,L134G,-0.824
23,L134N,-0.686
24,L134A,-0.0633

row,Variant,8OG:A repair function score
1,L134V,0.0486
2,L134E,-0.848
3,L134F,-0.116
4,L134D,-1.82
5,L134C,-0.394
6,L134T,-0.714
7,L134R,-1.01
8,L134Y,-0.464
9,L134S,-0.514
10,L134K,-0.914
11,L134H,-0.607
12,L134M,-0.216
13,L134I,-0.101
14,W124M,-1.62
15,W124L,-0.378
16,W124E,-1.01
17,W124K,-0.931
18,W124T,-0.869
19,W124H,-0.678
20,W124F,0.00143
21,W124I,-0.714
22,W124P,-0.593
23,W124V,-0.516
24,W124A,-0.577

row,Variant,8OG:A repair function score
1,W124Q,-0.557
2,W124R,-1.05
3,W124D,-0.574
4,W124N,-1.01
5,W124S,-0.825
6,W124Y,-0.973
7,W124C,-0.794
8,W124G,-0.892
9,N119C,-0.0452
10,N119A,0.121
11,N119Q,-0.00304
12,N119S,-0.294
13,N119R,0.0743
14,N119P,-0.0904
15,N119L,-0.112
16,N119W,-0.704
17,N119K,-0.0285
18,N119D,-0.419
19,N119M,-0.216
20,N119E,-0.069
21,N119G,0.0963
22,N119F,-0.259
23,N119Y,-0.361
24,N119I,-0.263

row,Variant,8OG:A repair function score
1,N119T,-0.0798
2,N119V,0.0134
3,N119H,0.126
4,Q132L,-0.194
5,Q132A,0.059
6,Q132E,-0.0366
7,Q132C,-0.154
8,Q132W,-0.228
9,Q132K,-0.364
10,Q132N,-0.0864
11,Q132M,-0.0607
12,Q132T,0.0372
13,Q132S,-0.109
14,Q132P,0.0126
15,Q132H,-0.0442
16,Q132I,-0.0124
17,Q132D,0.0351
18,Q132G,-0.076
19,Q132R,0.00437
20,Q132Y,-0.125
21,Q132F,-0.327
22,Q132V,-0.0799
